Reference: US20250312499A1, “KISSPEPTIN RECEPTOR (KISS1R) TARGETED THERAPEUTICS AND USES THEREOF” (priority 2024, published 2025)
Numbered stars: 1 amine (or outer) side, 2 acyl side, 3 side chain; on linkers, the order of the positions; unused ones are H or OH. Square brackets hold non-standard residues; d marks the D form. Ends that are not written are not given here. * marks the point of attachment. X2 = 4‑amino‑1‑((3-fluoro-4-methylbenzyl)glycyl)piperidine‑4‑carboxylic acid, Cc1ccc(CN(CC(=O)N2CCC(N[*:1])(C(=O)[*:2])CC2)[*:3])cc1F; Apc(4-OMe) = 4-aminopiperidine-4-carboxylic acid residue N1-acylated by a methoxy-bearing benzylglycyl; DOTA = O=C(O)CN1CCN(CC(=O)O)CCN(CC(=O)*)CCN(CC(=O)O)CC1; Api(1-amidino) = N=C(N)N1CCC(N)(C(=O)O)CC1; d(γGlu) = O=C(O)[C@@H](CCC(=O)[*:2])N[*:1]; Phe(3-F) = N[C@@H](Cc1cccc(F)c1)C(=O)O; εLys = N[C@@H](CCCCN[*:1])C(=O)[*:2]; Adipoyl = O=C(CCCCC(=O)[*:2])[*:1]; 4Pal = N[C@@H](Cc1ccncc1)C(=O)O; d4Pal = N[C@H](Cc1ccncc1)C(=O)O; 4Amb = NCc1ccc(C(=O)O)cc1; Octanoyl = CCCCCCCC(=O)*; APM = not defined here; Ahx = NCCCCCC(=O)O; azaGly = NNC(=O)O

target: human kisspeptin receptor (KISS1R) (human), Q969F8; test: radioligand competition, hKISS1R membranes; legend: A is <10 nM
Sequence (Q969F8 whole entry): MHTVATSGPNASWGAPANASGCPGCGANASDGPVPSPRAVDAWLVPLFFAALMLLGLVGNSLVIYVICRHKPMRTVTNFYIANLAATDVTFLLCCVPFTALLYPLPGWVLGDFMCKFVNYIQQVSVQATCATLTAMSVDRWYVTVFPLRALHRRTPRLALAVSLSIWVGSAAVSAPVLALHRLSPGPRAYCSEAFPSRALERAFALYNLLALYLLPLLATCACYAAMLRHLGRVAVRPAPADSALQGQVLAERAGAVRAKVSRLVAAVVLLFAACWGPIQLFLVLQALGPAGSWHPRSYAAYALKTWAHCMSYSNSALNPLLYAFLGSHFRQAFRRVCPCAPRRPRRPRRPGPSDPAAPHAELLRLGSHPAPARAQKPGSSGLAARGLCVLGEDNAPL

| Binder | Ki |
| --- | --- |
| {DOTA-Ahx}-NT[Phe(3-F)][azaGly]L[X2][4Pal]-NH2 (SMILES Cc1ccc(CNCC(=O)N2CCC(NC(=O)[C@H](CC(C)C)NC(=O)NNC(=O)[C@H](Cc3cccc(F)c3)NC(=O)[C@@H](NC(=O)[C@H](CC(N)=O)NC(=O)CCCCCNC(=O)CN3CCN(CC(=O)O)CCN(CC(=O)O)CCN(CC(=O)O)CC3)[C@@H](C)O)(C(=O)N[C@@H](Cc3ccncc3)C(N)=O)CC2)cc1F) [Compound 169] | < 10 nM |
| {DOTA}-GY[4Amb]NTF[azaGly]L[X2]W-NH2 (SMILES Cc1ccc(CNCC(=O)N2CCC(NC(=O)[C@H](CC(C)C)NC(=O)NNC(=O)[C@H](Cc3ccccc3)NC(=O)[C@@H](NC(=O)[C@H](CC(N)=O)NC(=O)c3ccc(CNC(=O)[C@H](Cc4ccc(O)cc4)NC(=O)CNC(=O)CN4CCN(CC(=O)O)CCN(CC(=O)O)CCN(CC(=O)O)CC4)cc3)[C@@H](C)O)(C(=O)N[C@@H](Cc3c[nH]c4ccccc34)C(N)=O)CC2)cc1F) [Compound 213] | < 10 nM |
| {Me‑PEG25‑C(:O)}-[dY]K(DOTA)NTF[azaGly]L[Api(1-amidino)]W-NH2 [Compound 182] | < 10 nM |
| {DOTA-APM}-ENT[Phe(3-F)][azaGly]L[X2]W-NH2 (reading uncertain) [Compound 159] | < 10 nM |
| {DOTA}-[d(γGlu)]F[azaGly]L[X2]W-NH2 (SMILES Cc1ccc(CNCC(=O)N2CCC(NC(=O)[C@H](CC(C)C)NC(=O)NNC(=O)[C@H](Cc3ccccc3)NC(=O)CC[C@@H](NC(=O)CN3CCN(CC(=O)O)CCN(CC(=O)O)CCN(CC(=O)O)CC3)C(=O)O)(C(=O)N[C@@H](Cc3c[nH]c4ccccc34)C(N)=O)CC2)cc1F) [Compound 156] | < 10 nM |
| {DOTA-Ahx}-NTF[azaGly]L[Apc(4-OMe)]F-NH2 [Compound 235] | < 10 nM |
| {DOTA-4Amb}-NTF[azaGly]L[X2]Y-NH2 (SMILES Cc1ccc(CNCC(=O)N2CCC(NC(=O)[C@H](CC(C)C)NC(=O)NNC(=O)[C@H](Cc3ccccc3)NC(=O)[C@@H](NC(=O)[C@H](CC(N)=O)NC(=O)c3ccc(CNC(=O)CN4CCN(CC(=O)O)CCN(CC(=O)O)CCN(CC(=O)O)CC4)cc3)[C@@H](C)O)(C(=O)N[C@@H](Cc3ccc(O)cc3)C(N)=O)CC2)cc1F) [Compound 205] | < 10 nM |
| {DOTA-(1r,4r)‑4‑(aminomethyl)cyclohexane‑1‑carbonyl}-ENT[Phe(3-F)][azaGly]L[X2]W-NH2 [Compound 160] | < 10 nM |
| {DOTA-2‑(4-aminopiperidin-1-yl)acetyl}-KNT[Phe(3-F)][azaGly]L[X2]W-NH2 [Compound 164] | < 10 nM |
| {DOTA}-GY[dW]NTF[azaGly]L[X2]W-NH2 (SMILES Cc1ccc(CNCC(=O)N2CCC(NC(=O)[C@H](CC(C)C)NC(=O)NNC(=O)[C@H](Cc3ccccc3)NC(=O)[C@@H](NC(=O)[C@H](CC(N)=O)NC(=O)[C@@H](Cc3c[nH]c4ccccc34)NC(=O)[C@H](Cc3ccc(O)cc3)NC(=O)CNC(=O)CN3CCN(CC(=O)O)CCN(CC(=O)O)CCN(CC(=O)O)CC3)[C@@H](C)O)(C(=O)N[C@@H](Cc3c[nH]c4ccccc34)C(N)=O)CC2)cc1F) [Compound 151] | < 10 nM |
| {DOTA-4Amb}-[dE]NTF[azaGly]L[X2]Y-NH2 (SMILES Cc1ccc(CNCC(=O)N2CCC(NC(=O)[C@H](CC(C)C)NC(=O)NNC(=O)[C@H](Cc3ccccc3)NC(=O)[C@@H](NC(=O)[C@H](CC(N)=O)NC(=O)[C@@H](CCC(=O)O)NC(=O)c3ccc(CNC(=O)CN4CCN(CC(=O)O)CCN(CC(=O)O)CCN(CC(=O)O)CC4)cc3)[C@@H](C)O)(C(=O)N[C@@H](Cc3ccc(O)cc3)C(N)=O)CC2)cc1F) [Compound 206] | < 10 nM |
| {DOTA-trans‑4‑(aminomethyl)cyclohexane‑1‑carboxylic acid}-F[azaGly]L[X2]W-NH2 [Compound 192] | < 10 nM |
| F[azaGly]L[X2]W-NH2 (not fully specified (N-terminus)) [Compound 203] | < 10 nM |
| {3‑(2-(2-(3-(p-tolyl)propanamido)ethoxy)ethoxy)propanoic acid}-[dY]K(DOTA)NTF[azaGly]L[Api(1-amidino)]W-NH2 [Compound 195] | < 10 nM |

Second part, the binder after the results:

| Ki | Binder |
| --- | --- |
| < 10 nM | NTF[azaGly]L[X2]W-NH2 (not fully specified (N-terminus)) [Compound 167] |
| < 10 nM | {DOTA-APM}-TF[azaGly]L[X2]W-NH2 (reading uncertain) [Compound 233] |
| < 10 nM | {DOTA-4Amb}-[D‑3‑aminopentanedioic acid]NT[Phe(3-F)][azaGly]L[X2][4Pal]-NH2 [Compound 232] |
| < 10 nM | {DOTA-4Amb}-GY[Ahx][dY][dW]NTF[azaGly]L[X2]W-NH2 (SMILES Cc1ccc(CNCC(=O)N2CCC(NC(=O)[C@H](CC(C)C)NC(=O)NNC(=O)[C@H](Cc3ccccc3)NC(=O)[C@@H](NC(=O)[C@H](CC(N)=O)NC(=O)[C@@H](Cc3c[nH]c4ccccc34)NC(=O)[C@@H](Cc3ccc(O)cc3)NC(=O)CCCCCNC(=O)[C@H](Cc3ccc(O)cc3)NC(=O)CNC(=O)c3ccc(CNC(=O)CN4CCN(CC(=O)O)CCN(CC(=O)O)CCN(CC(=O)O)CC4)cc3)[C@@H](C)O)(C(=O)N[C@@H](Cc3c[nH]c4ccccc34)C(N)=O)CC2)cc1F) [Compound 149] |
| < 10 nM | {2,2',2''‑(10-(2-((((1s,4s)-4-carboxycyclohexyl)methyl)amino)-2-oxoethyl)-1,4,7,10-tetraazacyclododecane-1,4,7-triyl)triacetic acid}-ENT[Phe(3-F)][azaGly]L[X2][4Pal]-NH2 [Compound 170] |
| < 10 nM | {DOTA-APM}-NTF[azaGly]L[X2]W-NH2 (reading uncertain) [Compound 158] |
| < 10 nM | {DOTA}-ENTF[azaGly]L[Apc(4-OMe)]F-NH2 [Compound 237] |
| < 10 nM | {DOTA-Ahx}-[dY][dW]NTF[azaGly]L[Api(1-amidino)]W-NH2 (SMILES CC(C)C[C@H](NC(=O)NNC(=O)[C@H](Cc1ccccc1)NC(=O)[C@@H](NC(=O)[C@H](CC(N)=O)NC(=O)[C@@H](Cc1c[nH]c2ccccc12)NC(=O)[C@@H](Cc1ccc(O)cc1)NC(=O)CCCCCNC(=O)CN1CCN(CC(=O)O)CCN(CC(=O)O)CCN(CC(=O)O)CC1)[C@@H](C)O)C(=O)NC1(C(=O)N[C@@H](Cc2c[nH]c3ccccc23)C(N)=O)CCN(C(=N)N)CC1) [Compound 6] |
| < 10 nM | {DOTA-(1r,4r)‑4‑(aminomethyl)cyclohexane‑1‑carbonyl}-[dE]NT[Phe(3-F)][azaGly]L[X2]W-NH2 [Compound 161] |
| < 10 nM | {DOTA-APM}-ETF[azaGly]L[X2]W-NH2 (reading uncertain) [Compound 234] |
| < 10 nM | {DOTA-APM}-ENT[beta‑(2-thienyl)alanine][azaGly]L[X2]W-NH2 (reading uncertain) [Compound 218] |
| < 10 nM | {DOTA}-G[dY][d4Pal]NTF[azaGly]L[X2]Y-NH2 (SMILES Cc1ccc(CNCC(=O)N2CCC(NC(=O)[C@H](CC(C)C)NC(=O)NNC(=O)[C@H](Cc3ccccc3)NC(=O)[C@@H](NC(=O)[C@H](CC(N)=O)NC(=O)[C@@H](Cc3ccncc3)NC(=O)[C@@H](Cc3ccc(O)cc3)NC(=O)CNC(=O)CN3CCN(CC(=O)O)CCN(CC(=O)O)CCN(CC(=O)O)CC3)[C@@H](C)O)(C(=O)N[C@@H](Cc3ccc(O)cc3)C(N)=O)CC2)cc1F) [Compound 193] |
| < 10 nM | {3‑(2-(2-(3-(4-iodophenyl)propanamido)ethoxy)ethoxy)propanoic acid}-[dY]K(DOTA)NTF[azaGly]L[Api(1-amidino)]W-NH2 [Compound 196] |
| < 10 nM | {3‑(2-(2-methoxyethoxy)ethoxy)propanoic acid}-[dY]K(DOTA)NTF[azaGly]L[Api(1-amidino)]W-NH2 [Compound 197] |
| < 10 nM | {DOTA-4Amb-Met-Trp-εLys-Adipoyl}-NTF[azaGly]L[X2]W-NH2 [Compound 168] |
| < 10 nM | {DOTA-Ahx}-ENTF[azaGly]L[Apc(4-OMe)]F-NH2 [Compound 236] |
| < 10 nM | Octanoyl-[dY]K(DOTA)NTF[azaGly]L[X2]W-NH2 (SMILES CCCCCCCC(=O)N[C@H](Cc1ccc(O)cc1)C(=O)N[C@@H](CCCCNC(=O)CN1CCN(CC(=O)O)CCN(CC(=O)O)CCN(CC(=O)O)CC1)C(=O)N[C@@H](CC(N)=O)C(=O)N[C@H](C(=O)N[C@@H](Cc1ccccc1)C(=O)NNC(=O)N[C@@H](CC(C)C)C(=O)NC1(C(=O)N[C@@H](Cc2c[nH]c3ccccc23)C(N)=O)CCN(C(=O)CNCc2ccc(C)c(F)c2)CC1)[C@@H](C)O) [Compound 181] |
